Changes are numbered by the printed parent chain. Names and notes keep the numbering of the source. “Also recorded” adds a separate entry of the source.
Assays:
human UGTs = assay: Recombinant human UGT screen: glucuronidation rates across human UGTs; assay type: biochemical; details: 10 μM aglycone; other UGTs at very low rates
Method: (§1) Recombinant human UGTs 1A1, 1A3, 1A6, 1A7, 1A8, 1A9, 1A10, 2A1, 2A2, 2A3, 2B4, 2B10, 2B7, and 2B17 were produced, as His-tagged proteins, in baculovirus-infected insect cells as previously described.[37]−[39] The relative expression level of each of these recombinant UGTs was evaluated by immunodetection, using monoclonal antibody against the His-tag, as described elsewhere.[40] A numeric value of 1.0 was given to the expression level of UGT1A8 and the relative expression level of each of the other UGTs was related to this value. Normalized activities were obtained by dividing the glucuronidation rate values by the relative expression level of the tested UGT. In addition, UGTs 1A4, 2B10, and 2B15 were purchased from Corning Life Sciences (New York) and are marked, in Figure 5, with a “C” to indicate that they are commercial enzymes. The expression levels of the UGTs in the commercial samples could not be determined, so their protein concentration was used to calculate the reaction rate.
(§2) The incubation mixtures for glucuronidation assays contained 100 mM Tris-HCl buffer pH 7.4, 2.5 mM MgCl2, 0.5 mM UDPGA, recombinant UGT, or microsomes as the enzyme source and 0–15 μM of the test aglycone substrate. When the incubation mixtures contained microsomes, alamethicin was used at a final concentration of 12.5 μg/mL, but it was not included in the recombinant enzyme assays.[43] In the first experiments three negative control samples were tested, namely (i) without the substrate 7-hydroxycoumarin derivative, (ii) without the cofactor UDPGA, or (iii) without the enzyme source. In subsequent experiments, the control samples lacked the enzyme source since it gave the highest fluorescence background. Preliminary experiments were done under different conditions than most of the later assays, namely in 2.5 mL of 100 mM phosphate buffer pH 7.4, containing 500 μg pig liver microsomes, 1.0 μM compound 6 and 0.5 mM UDPGA, at room temperature. Fluorescence spectra (excitation 200–420 nm; emission 400–600 nm) or fluorescence decrease at 390 nm excitation and 460 nm emission, were measured in these preliminary experiments, using a Shimadzu RF-5000 spectrophotofluorometer.
(§3) Most of the glucuronidation assays were carried out in 96 multiwell plate format, and incubations were carried out in 100 μL and at 37 °C, in the presence of Tris–HCl buffer pH 7.4, UDPGA, and the tested 7-hydroxycoumarin derivative, at the indicated concentrations. Fluorescence decline in the multiwell plate experiments was monitored every other minute, for 40 min, using an excitation filter at 405 nm and detection at 460 nm, in a Victor2 1420 Multilabel counter (PerkinElmer, Life Sciences, Turku, Finland). The fluorescence values were transformed into molarity using the aglycone substrates for making the respective standard curves. Slopes of the substrate concentration decrease per minute were calculated using linear regression analysis, in which the linear part of the kinetic assay indicated the glucuronidation rate. Enzyme catalyzed glucuronidation rate was calculated by subtracting the blank value from the full reaction value. The intra-assay variability of the kinetic assays was 6% when compound 6 was used as the aglycone substrate. Kinetic analyses were also performed in the same 96 multiwell plates format, with excitation filter at 405 nm and detection at 460 nm, using 6–8 different substrate concentrations per substrate and two different protein concentrations for both the wild-type and mutant UGT1A10. The higher concentrations, 13.5 mg/L for UGT1A10 and 12.0 mg/L for the UGT1A10 mutant, were used when the substrates were HFC, compounds 4 and 6, whereas the lower protein concentrations, 6.75 and 6.0 mg/L for UGT1A10 and the mutant, respectively, were used when the substrates were compounds 1, 2, 3, and 5.

[1] = system: human liver microsomes (HLM); assay: Glucuronidation by human liver microsomes (HLM); assay type: in vitro ADME; details: 10 μM aglycone
Method: A commercial HLM pool (cat no:452210, BD Gentest, Bedford, MA) and human intestine microsomes (HIM) pool (lot. no 1110189, XenoTech, Kansas City, KS) were purchased. Pig liver samples were prepared from untreated female pigs that were used for practicing surgical procedures at the University of Kuopio (currently: University of Eastern Finland, Kuopio campus). Other animal liver microsomes were prepared as described previously.[41] The Ethics Committee for Animal Experiments, University of Kuopio, approved these experiments.
as §2, §3

[2] = Absorbance spectra of coumarin derivatives; assay type: physicochemical; details: 10 μM, 100 mM Tris–HCl pH 7.4, 10% dimethyl sulfoxide
Method: The absorbance spectra of 10 μM coumarin derivatives at 100 mM Tris–HCl pH 7.4 containing 10% dimethyl sulfoxide were measured using a Hitachi U-2000 Spectrophotometer (Tokyo, Japan). Excitation and emission fluorescence spectra of 0.1 μM coumarin derivatives in 100 mM Tris-HCl pH 7.4 were measured using a Shimadzu RF-5000 spectrophotofluorometer (Tokyo, Japan). The excitation spectra was from 200 to 420 at 460 nm emission and the emission spectra was from 400 to 600 at 390 nm excitation (data in Supplementary Table S1 and Figures S1 and S2). The effect of pH on fluorescence intensity was determined at 405 nm excitation and 460 nm emission, in the presence of 1.5% trichloroacetic acid, 100 mM phosphate buffers at pH 5, 6, 7, 8, and 9, or 1.6 M glycine–NaOH pH 10.4.

[3] = Excitation and emission fluorescence spectra of coumarin derivatives; assay type: physicochemical; design: dose or concentration left out as unconfirmed
Method: The absorbance spectra of 10 μM coumarin derivatives at 100 mM Tris–HCl pH 7.4 containing 10% dimethyl sulfoxide were measured using a Hitachi U-2000 Spectrophotometer (Tokyo, Japan). […] The excitation spectra was from 200 to 420 at 460 nm emission and the emission spectra was from 400 to 600 at 390 nm excitation (data in Supplementary Table S1 and Figures S1 and S2). The effect of pH on fluorescence intensity was determined at 405 nm excitation and 460 nm emission, in the presence of 1.5% trichloroacetic acid, 100 mM phosphate buffers at pH 5, 6, 7, 8, and 9, or 1.6 M glycine–NaOH pH 10.4.

[4] = substrate: CN(C)c1ccc(-c2cc3ccc(O)cc3oc2=O)cc1; assay: Glucuronidation kinetics by recombinant wild-type UGT1A10 (fluorescence decrease, 96-well plate); assay type: biochemical, human; details: other: UGT1A10 wild-type, 7-hydroxyl glucuronidation, Michaelis–Menten, one experiment; pH 7.4; 37.0 °C
Method: as §1, §2, §3

[5] = substrate: COc1ccc(-c2cc3ccc(O)cc3oc2=O)cc1; assay: as above; assay type: biochemical, human; details: other: UGT1A10 wild-type, 7-hydroxyl glucuronidation, Michaelis–Menten, one experiment; pH 7.4; 37.0 °C
Method: as §1, §2, §3

[6] = substrate: Cc1ccc(-c2cc3ccc(O)cc3oc2=O)cc1; assay: as above; assay type: biochemical, human; details: other: UGT1A10 wild-type, 7-hydroxyl glucuronidation, Michaelis–Menten, one experiment; pH 7.4; 37.0 °C
Method: as §1, §2, §3

[7] = substrate: O=c1cc(C(F)(F)F)c2ccc(O)cc2o1; assay: as above; assay type: biochemical, human; details: other: UGT1A10 wild-type, 7-hydroxyl glucuronidation, Michaelis–Menten, one experiment; pH 7.4; 37.0 °C
Method: as §1, §2, §3

[8] = substrate: O=c1oc2cc(O)ccc2cc1-c1ccc(F)cc1; assay: as above; assay type: biochemical, human; details: other: UGT1A10 wild-type, 7-hydroxyl glucuronidation, Michaelis–Menten, one experiment; pH 7.4; 37.0 °C
Method: as §1, §2, §3

[9] = substrate: O=c1oc2cc(O)ccc2cc1-c1ccc(O)cc1; assay: as above; assay type: biochemical, human; details: other: UGT1A10 wild-type, 7-hydroxyl glucuronidation, Michaelis–Menten, one experiment; pH 7.4; 37.0 °C
Method: as §1, §2, §3

[10] = substrate: O=c1oc2cc(O)ccc2cc1-n1cncn1; assay: as above; assay type: biochemical, human; details: other: UGT1A10 wild-type, 7-hydroxyl glucuronidation, Michaelis–Menten, one experiment; pH 7.4; 37.0 °C
Method: as §1, §2, §3

[11] = substrate: CN(C)c1ccc(-c2cc3ccc(O)cc3oc2=O)cc1; assay: Glucuronidation kinetics by UGT1A10 mutant 1A10-H210M (fluorescence decrease, 96-well plate); assay type: biochemical, human; details: other: UGT1A10mutant (H210M), 7-hydroxyl glucuronidation, one experiment; pH 7.4; 37.0 °C
Method: (§4) The UGT1A10 mutant 1A10-H210 M was prepared according to the QuikChange methodology, using the cloned UGT1A10 in pFastBac[42] as a template and the following two oligonucleotides:
(§5) The entire coding sequence of UGT1A10 in the mutant clone was sequenced, and subsequently, recombinant baculovirus was prepared and used to express the mutant enzyme in baculovirus-infected SF9 insect cells.
as §2, §3

[12] = substrate: COc1ccc(-c2cc3ccc(O)cc3oc2=O)cc1; assay: as above; assay type: biochemical, human; details: other: UGT1A10mutant (H210M), 7-hydroxyl glucuronidation, one experiment; pH 7.4; 37.0 °C
Method: as §4, §5, §2, §3

[13] = substrate: Cc1ccc(-c2cc3ccc(O)cc3oc2=O)cc1; assay: as above; assay type: biochemical, human; details: other: UGT1A10mutant (H210M), 7-hydroxyl glucuronidation, one experiment; pH 7.4; 37.0 °C
Method: as §4, §5, §2, §3

[14] = substrate: O=c1cc(C(F)(F)F)c2ccc(O)cc2o1; assay: as above; assay type: biochemical, human; details: other: UGT1A10mutant (H210M), 7-hydroxyl glucuronidation, one experiment; pH 7.4; 37.0 °C
Method: as §4, §5, §2, §3

[15] = substrate: O=c1oc2cc(O)ccc2cc1-c1ccc(F)cc1; assay: as above; assay type: biochemical, human; details: other: UGT1A10mutant (H210M), 7-hydroxyl glucuronidation, one experiment; pH 7.4; 37.0 °C
Method: as §4, §5, §2, §3

[16] = substrate: O=c1oc2cc(O)ccc2cc1-c1ccc(O)cc1; assay: as above; assay type: biochemical, human; details: other: UGT1A10mutant (H210M), 7-hydroxyl glucuronidation, one experiment; pH 7.4; 37.0 °C
Method: as §4, §5, §2, §3

[17] = substrate: O=c1oc2cc(O)ccc2cc1-n1cncn1; assay: as above; assay type: biochemical, human; details: other: UGT1A10mutant (H210M), 7-hydroxyl glucuronidation, one experiment; pH 7.4; 37.0 °C
Method: as §4, §5, §2, §3

CN(C)c1ccc(-c2cc3ccc(O)cc3oc2=O)cc1 [Compound 4, 7-Hydroxy-3-(4-(dimethylamino)phenyl)-2H-chromen-2-one]
Selectivity among human UGTs (human UGTs): selective for UGT1A10 | Glucuronidation by HLM (in words) [1]: not glucuronidated by HLM at all, or only at very low rates; also recorded: very low or below the detection limit | Amax [2]: 370 nm | ε abs [2]: 22900 M⁻¹ cm⁻¹ | Fluorescence EMmax [3]: 457 nm

B1: UGT1A10 (Homo sapiens) (protein)
chain: GKLLVVPMDGSHWFTMQSVVEKLILRGHEVVVVMPEVSWQLERSLNCTVKTYSTSYTLEDQNREFMVFAHAQWKAQAQSIFSLLMSSSSGFLDLFFSHCRSLFNDRKLVEYLKESSFDAVFLDPFDTCGLIVAKYFSLPSVVFTRGIFCHHLEEGAQCPAPLSYVPNDLLGFSDAMTFKERVWNHIVHLEDHLFCQYLFRNALEIASEILQTPVTAYDLYSHTSIWLLRTDFVLDYPKPVMPNMIFIGGINCHQGKPLPMEFEAYINASGEHGIVVFSLGSMVSEIPEKKAMAIADALGKIPQTVLWRYTGTRPSNLANNTILVKWLPQNDLLGHPMTRAFITHAGSHGVYESICNGVPMVMMPLFGDQMDNAKRMETKGAGVTLNVLEMTSEDLENALKAVINDKSYKENIMRLSSLHKDRPVEPLDLAVFWVEFVMRHKGAPHLRPAAHDLTWYQYHSLDVIGFLLAVVLTVAFITFKCCAYGYRKCLGKKGRVKKAHKSKTH
notes: His-tag; made in house; host or cells: baculovirus-infected insect cells
Km [4]: 2.8 (0–6.5) μM | Vmax [4]: 0.0153 µmol/min/mg | Vmax/Km [4]: 5500 µL/min/mg | Km [5]: 8.3 (0–31.4) μM | Vmax [5]: 0.0223 µmol/min/mg | Vmax/Km [5]: 2700 µL/min/mg | Km [6]: 2.8 (0.7–4.9) μM | Vmax [6]: 0.0162 µmol/min/mg | Vmax/Km [6]: 5800 µL/min/mg | Km [7]: 14 (10.7–17.3) μM | Vmax [7]: 0.0151 µmol/min/mg | Vmax/Km [7]: 1100 µL/min/mg | Km [8]: 10.7 (1.7–19.6) μM | Vmax [8]: 0.031 µmol/min/mg | Vmax/Km [8]: 2900 µL/min/mg | Km [9]: 2.2 (1–3.4) μM | Vmax [9]: 0.0059 µmol/min/mg | Vmax/Km [9]: 2700 µL/min/mg | Km [10]: 7.0 (3.1–11) μM | Vmax [10]: 0.0053 µmol/min/mg | Vmax/Km [10]: 760 µL/min/mg

B2: UGT1A10 mutant 1A10-H210M (Homo sapiens; H210M) (protein)
chain: B1 chain with H185M
notes: His-tag; made in house; host or cells: baculovirus-infected SF9 insect cells
Km [11]: 4.7 (1.5–7.9) μM | Vmax [11]: 0.0065 µmol/min/mg | Vmax/Km [11]: 1400 µL/min/mg | Km [12]: 3.8 (0.97–6.7) μM | Vmax [12]: 0.0095 µmol/min/mg | Vmax/Km [12]: 2500 µL/min/mg | Km [13]: 4.6 (1.5–7.8) μM | Vmax [13]: 0.0059 µmol/min/mg | Vmax/Km [13]: 1300 µL/min/mg | Km [14]: 32.9 (0–102) μM | Vmax [14]: 0.0117 µmol/min/mg | Vmax/Km [14]: 360 µL/min/mg | Km [15]: 3.5 (0–9.3) μM | Vmax [15]: 0.0087 µmol/min/mg | Vmax/Km [15]: 2500 µL/min/mg | Km [16]: 7.8 (5.5–10.2) μM | Vmax [16]: 0.0063 µmol/min/mg | Vmax/Km [16]: 810 µL/min/mg | Km [17]: 26.8 (0–80) μM | Vmax [17]: 0.0063 µmol/min/mg | Vmax/Km [17]: 240 µL/min/mg

From article PMC6150735, “Molecular Docking-Based Design and Development of a Highly Selective Probe Substrate for UDP-glucuronosyltransferase 1A10” (Molecular Pharmaceutics, 2018)
